Results on 3 molecules are retold here after patent EP4682166A1 (Guangzhou Enmai Biotechnology Co., Ltd, dated 2026).

For test [1], the target named is T1, human NMI (N-myc Interacting protein), recombinant protein (human, UniProt Q13287 1-307, limits assumed).
T1 construct: Gene ID: 9111; also called hNMI; antigen
T1 sequence (looked up): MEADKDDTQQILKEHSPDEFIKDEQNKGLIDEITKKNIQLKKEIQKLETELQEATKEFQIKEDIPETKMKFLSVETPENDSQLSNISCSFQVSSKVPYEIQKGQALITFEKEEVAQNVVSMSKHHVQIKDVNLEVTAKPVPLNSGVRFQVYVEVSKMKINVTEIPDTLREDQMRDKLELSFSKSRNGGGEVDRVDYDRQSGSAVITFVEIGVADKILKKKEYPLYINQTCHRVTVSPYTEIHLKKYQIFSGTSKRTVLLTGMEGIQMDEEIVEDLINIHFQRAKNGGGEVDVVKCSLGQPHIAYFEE
In words: sandwich ELISA; detection 98G10-1-biotin; hNMI 11.111 ng/mL. (In an ELISA, binding on a coated surface is turned into a signal by an enzyme label.)

The target in test [2] is T1, human NMI (N-myc Interacting protein), …. In words: sandwich ELISA; detection 94C4-1-biotin 0.5µg/mL; hNMI 781.250 pg/mL.
The target is the same in test [3]. Put plainly: sandwich ELISA; detection 94C4-1-biotin 1µg/mL; hNMI 195.313 pg/mL.
Test [4] deals with T2, NMI-flag overexpressed protein (293T cells transfected with the hNMI-flag plasmid) (human) (UniProt Q13287).
T2 sequence (looked up): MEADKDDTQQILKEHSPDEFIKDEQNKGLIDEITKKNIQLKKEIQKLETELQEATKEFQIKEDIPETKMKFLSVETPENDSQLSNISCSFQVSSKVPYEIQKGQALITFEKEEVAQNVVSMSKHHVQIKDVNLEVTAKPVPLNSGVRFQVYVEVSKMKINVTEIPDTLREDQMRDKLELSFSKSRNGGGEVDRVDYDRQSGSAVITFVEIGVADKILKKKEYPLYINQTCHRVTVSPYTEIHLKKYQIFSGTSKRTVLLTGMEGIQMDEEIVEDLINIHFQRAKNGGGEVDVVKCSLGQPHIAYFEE
Put plainly: sandwich ELISA; detection 94C4-1-biotin; cell lysates of NMI-flag 293T, replicate 2.

Test [5] concerns the target T2, NMI-flag overexpressed protein (293T cells transfected with the hNMI-flag plasmid) (human). In words: sandwich ELISA; detection 94C4-1-biotin; cell lysates of NMI-flag 293T, replicate 1.
In test [6] the target is T1, human NMI (N-myc Interacting protein), …. In words: sandwich ELISA; detection 39B4-1-biotin; hNMI 100.000 ng/mL.
For test [7] the target is unchanged. In words: sandwich ELISA; detection 39B4-1-biotin; hNMI 11.111 ng/mL.
For test [8] the target is unchanged. In words: sandwich ELISA; detection 94C4-1-biotin 0.5µg/mL; hNMI 195.313 pg/mL.
The target is the same in test [9]. Put plainly: sandwich ELISA; detection 98G10-1-biotin; hNMI 100.000 ng/mL.
The target is the same in test [10]. In words: ELISA, binding to hNMI.
The target is the same in test [11]. Put plainly: sandwich ELISA; detection 94C4-1-biotin 0.5µg/mL; hNMI 97.656 pg/mL.
Test [12] shares this target. Put plainly: sandwich ELISA; detection 94C4-1-biotin 0.5µg/mL; hNMI 48.828 pg/mL.
The target is the same in test [13]. In words: sandwich ELISA; detection 94C4-1-biotin 1µg/mL; hNMI 12,500.000 pg/mL.
In test [14] the target is T3, human NMI (N-myc Interacting protein) (human) (UniProt Q13287).
T3 sequence (looked up): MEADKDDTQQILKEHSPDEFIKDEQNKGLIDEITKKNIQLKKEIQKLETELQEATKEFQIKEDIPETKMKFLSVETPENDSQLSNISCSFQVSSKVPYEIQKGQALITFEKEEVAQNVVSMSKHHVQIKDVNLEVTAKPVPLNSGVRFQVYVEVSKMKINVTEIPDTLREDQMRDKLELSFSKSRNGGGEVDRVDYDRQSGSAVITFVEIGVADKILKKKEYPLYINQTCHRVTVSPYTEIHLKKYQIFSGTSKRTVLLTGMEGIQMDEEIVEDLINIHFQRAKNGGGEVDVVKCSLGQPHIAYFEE
In words: magnetic-bead chemiluminescent sandwich; capture 98G10 beads, detection acridinium-B-8 (2.0 mg B-8 labelled); hNMI 50 pg/mL.

Test [15] concerns the target T3, human NMI (N-myc Interacting protein) (human). In words: magnetic-bead chemiluminescent sandwich, kit of Example 8-1; capture 98G10 beads, detection acridinium-B-8; series 3, hNMI 10000 pg/mL.
Test [16] shares this target. Put plainly: magnetic-bead chemiluminescent sandwich, kit of Example 8-1; capture 98G10 beads, detection acridinium-B-8; series 1, hNMI 8000 pg/mL.
Test [17] has the same target. In words: magnetic-bead chemiluminescent sandwich, kit of Example 8-1; capture 98G10 beads, detection acridinium-B-8; series 3, hNMI 50 pg/mL.
For test [18] the target is unchanged. Put plainly: magnetic-bead chemiluminescent sandwich, kit of Example 8-1; capture 98G10 beads, detection acridinium-B-8; series 2, hNMI 50 pg/mL.
Test [19] has the same target. In words: magnetic-bead chemiluminescent sandwich, kit of Example 8-1; capture 98G10 beads, detection acridinium-B-8; series 1, hNMI 4000 pg/mL.
For test [20] the target is unchanged. Put plainly: magnetic-bead chemiluminescent sandwich; capture 98G10 beads (1.0 mg 98G10), detection acridinium-B-8; hNMI 50 pg/ml.
The target is the same in test [21]. In words: magnetic-bead chemiluminescent sandwich, kit of Example 8-1; capture 98G10 beads, detection acridinium-B-8; series 3, hNMI 1000 pg/mL.
Test [22] has the same target. Put plainly: magnetic-bead chemiluminescent sandwich; capture 98G10 beads (0.5 mg 98G10), detection acridinium-B-8; hNMI 400 pg/ml.
Test [23] has the same target. In words: magnetic-bead chemiluminescent sandwich, kit of Example 8-1; capture 98G10 beads, detection acridinium-B-8; series 1, hNMI 12000 pg/mL.
For test [24] the target is unchanged. In words: magnetic-bead chemiluminescent sandwich; capture 98G10 beads, detection acridinium-B-8 (2.0 mg B-8 labelled); hNMI 1000 pg/mL.

B1: monoclonal antibody B-8 (antibody, V domains shown)
VH: QSLEESGGDLVKPGASLTLTCTASGFSFSSSYYMCWVRQAPGKGLEWIACIYAGSSGSTYYASWAKGRFTISKTSSTTVTLQMTSLTAADTATYFCAREYSYDDYGDFWGFNLWGPGTLVTVSS
VL: ALVMTQTPSSVSAAVGGTVTINCQASQNIYTNLAWYQQKPGQPPKLLIYGASNLESGVPSRFKGSGSGTEYTLTISDLECDDAATYYCQSSLYSRIADRANAFGGGTEVVVK
notes: Rabbit monoclonal antibody; also called B8-1
In general, EC50 refers to the concentration needed to bring the measured effect to its halfway point. On to B1, for which the OD450 in [1] was 1.38 OD450; in test [2], 0.265 OD450; in [3], 0.173 OD450; in test [4], 2.9 OD450; in test [5] it was 3.03 OD450; in [6] it was 3.07 OD450. Also, the OD450 in [7] turned out to be 1.25 OD450; in test [8], 0.134 OD450; in [9] it was 3.02 OD450; in [11] it was 0.113 OD450; in test [12], 0.102 OD450; in [13] it was 2.03 OD450. For the same molecule, the half-maximal effective concentration (EC50) in test [10] was 0.309 nM.

B2: acridinium ester-labeled monoclonal antibody B-8 (antibody, V domains shown)
VH: QSLEESGGDLVKPGASLTLTCTASGFSFSSSYYMCWVRQAPGKGLEWIACIYAGSSGSTYYASWAKGRFTISKTSSTTVTLQMTSLTAADTATYFCAREYSYDDYGDFWGFNLWGPGTLVTVSS
VL: ALVMTQTPSSVSAAVGGTVTINCQASQNIYTNLAWYQQKPGQPPKLLIYGASNLESGVPSRFKGSGSGTEYTLTISDLECDDAATYYCQSSLYSRIADRANAFGGGTEVVVK
modifications: acridinium ester label on the antibody, site not stated
For the molecule B2, the Signal value in test [14] stood at 6220; in [15], 1.48e+06; in [16], 587000; in [17], 6120; in test [18] it was 6180; in [19], 258000. In addition, the Signal value in [20] is 11100; in test [21], 131000; in [22], 39900; in test [23], 894000; in test [24] it was 116000.

B3: monoclonal antibody 240B10-1 (antibody, V domains shown)
VH: QSLEESGGRLVTPGGSLTLTCTVSGIDLSSYTMGWVRQAPGKGLEYIGIISGGGRTYYASWAKGRFTISKTSSTTVDLKVTSLTTEDTATYFCARIYTLWGQGTLVTVSS
VL: QVLTQTLASVSAAVGGTVTINCQSSQSVYNNDYLAWFQQKSGQPPKQLIHSASKLASGVPSRFKGSGSGTQFTLTINDVQCDDAATYYCLGGYDCYSADCNVFGGGTEVVVK
notes: Rabbit monoclonal antibody
On to B3, for which the OD450 in test [1] was 1.7 OD450; in [2], 0.396 OD450; in [3], 0.212 OD450; in test [6] it was 3.12 OD450; in test [7], 1.71 OD450; in test [8], 0.187 OD450. The OD450 in [9] was 3.14 OD450; in test [11], 0.146 OD450; in [12], 0.125 OD450; in test [13], 2.17 OD450.
